How the values were obtained:
[1] = target: human sAPPβ (MESO SCALE DISCOVERY) (human) (UniProt P05067); assay: SPR (ProteOn, GLM chip), 5H10 immobilised, sAPPβ as analyte
[2] = target: human sAPPβ (MESO SCALE DISCOVERY) (human) (UniProt P05067); assay: SPR (ProteOn), 5H10 immobilized on GLM chip, sAPPβ as analyte at 1000, 250, 62.5, 15.6, 3.91 nM

human sAPPβ (MESO SCALE DISCOVERY) (human), sequence (P05067 18-671): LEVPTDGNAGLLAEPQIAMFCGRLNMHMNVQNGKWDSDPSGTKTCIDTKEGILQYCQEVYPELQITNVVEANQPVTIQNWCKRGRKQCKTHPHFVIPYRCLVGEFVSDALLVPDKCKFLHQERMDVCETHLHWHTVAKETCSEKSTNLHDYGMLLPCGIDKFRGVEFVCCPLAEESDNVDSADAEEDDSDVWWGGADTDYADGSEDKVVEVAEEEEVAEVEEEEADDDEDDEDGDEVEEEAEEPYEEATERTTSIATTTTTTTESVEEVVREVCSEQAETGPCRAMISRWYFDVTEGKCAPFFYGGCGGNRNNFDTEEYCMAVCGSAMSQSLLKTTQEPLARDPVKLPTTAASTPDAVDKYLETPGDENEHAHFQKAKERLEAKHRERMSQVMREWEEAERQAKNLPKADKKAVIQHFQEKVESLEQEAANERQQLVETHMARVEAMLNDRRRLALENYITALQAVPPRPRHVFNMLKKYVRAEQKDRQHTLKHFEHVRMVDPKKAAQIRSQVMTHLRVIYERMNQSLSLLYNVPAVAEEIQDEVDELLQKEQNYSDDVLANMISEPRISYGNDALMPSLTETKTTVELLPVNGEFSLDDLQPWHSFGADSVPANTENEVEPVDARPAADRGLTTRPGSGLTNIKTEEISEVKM

B1: anti-internal structure antibody 5H10 (antibody, IgG1, V domains shown)
VH: QVQLQQSGTELAKPGASVKMSCKASGYTFIDYWMHWIKQSPGQGLEWIGFINPRSGSTTYNQKFRDKATLTVDTSSSTAYMQLTSLTSEDSAVYYCTRPDFDYFDYWGQGTTLTVSS
VL: DVLMTQTPLSLPVSLGDHASISCRSSQSIVQSNGNTYLEWYLQKPGQSPKLLIYKVSNRFSGVPDRFSGSGSGTDFTLKISSVEAEDLGIYYCFQASHVPLTFGAGTKLELKR
Work on B1 yielded a koff [1] of 5.62e-05 s⁻¹, a kon [1] of 90800 M⁻¹ s⁻¹ and a Kd [2] of 0.62 nM.

Reference: US20150111231A1
